Literature values, collected in paper PMC4586518, “Melanin production through novel processing of proopiomelanocortin in the extracellular compartment of the auricular skin of C57BL/6 mice after UV-irradiation” (Scientific Reports, 2015).

Assays:
[1] = tested on: MC-1R
Text: Melanin plays an important role in protecting skin after UV-irradiation. α-MSH is a major catalyst for melanogenesis in the skin following UV-irradiation. α-MSH-LI and ACTH-LI may be present in culture media of normal keratinocytes, fibroblasts, melanocytes, and their cell extracts. Although POMC and POMC-derived peptides such as ACTH and α-MSH are released from the intermedia of the pituitary, it is unlikely that pituitary secretions contribute to local pigmentation. In the present report, POMC-related peptides were detected in the UV-irradiated auricle ... || Structure-activity analyses of α-MSH have reported information on the essential sequence required for MC-1R binding and melanin production. […] However, Ac-His-Phe-Arg-Trp-NH2 had 400,000-fold less activity (EC50 20 μM) than α-MSH in a frog skin bioassay[31] and approximately 7,000-fold less activity (EC50 1 μM) in a lizard skin bioassay. Furthermore, the N-terminal region of α-MSH is ...

[2] = tested on: MC-1R; set-up: method as in 2 sources, ref 23 = [23]; PMID 17317724; doi:10.1096/fj.06-7398com; Rousseau K. et al. Proopiomelanocortin (POMC), the ACTH/melanocortin precursor, is secreted by human epidermal keratinocytes and melanocytes and stimulates melanogenesis . FASEB J 21 , 1844 – 1856 ( 2 ||| ref 34 = [34]; PMID 1556905; doi:10.1016/0024-3205(92)90347-r; Slominski. A. et al. Melanotropic activity of gamma MSH peptides in melanoma cells . Life Sci , 50 , 1103 – 1108 ( 1992 ). 1556905 10.1016/0024-3205(92)90347-r; settings: MC-1R
Text: To clarify the mechanism of melanin production after UV-irradiation, we assessed the expression of POMC and POMC-derived peptides after UV-irradiation to the skin of the murine auricle.

B1: proopiomelanocortin (protein, UniProt P01189 1-267, looked up)
chain: MPRSCCSRSGALLLALLLQASMEVRGWCLESSQCQDLTTESNLLECIRACKPDLSAETPMFPGNGDEQPLTENPRKYVMGHFRWDRFGRRNSSSSGSSGAGQKREDVSAGEDCGPLPEGGPEPRSDGAKPGPREGKRSYSMEHFRWGKPVGKKRRPVKVYPNGAEDESAEAFPLEFKRELTGQRLREGDGPDGPADDGAGAQADLEHSLLVAAEKKDEGPYRMEHFRWGSPPKDKRYGGFMTSEKSQTPLVTLFKNAIIKNAYKKGE
modifications: full-length
notes: precursor of α-MSH and ACTH; 32 kDa
influence on melanogenesis via MC-1R [1]: only slightly influenced melanogenesis via MC-1R | affinity for MC-1R [2]: markedly low
